Columns and labels:
Assay in all cases: SPR (IBIS MX96): mAb printed on the chip, recombinant FcγR injected at 10 to 0.005 µM; axis 'KD, M^-1', that is the reciprocal of KD
[1] = target: T1, human FcγR3B (human, UniProt O75015 17-200)
T1 construct: also called huFcγR3B

[2] = target: T2, mouse FcγRIV (mouse, UniProt A0A0B4J1G0 21-203)
T2 construct: also called mFcγRIV
T2 sequence: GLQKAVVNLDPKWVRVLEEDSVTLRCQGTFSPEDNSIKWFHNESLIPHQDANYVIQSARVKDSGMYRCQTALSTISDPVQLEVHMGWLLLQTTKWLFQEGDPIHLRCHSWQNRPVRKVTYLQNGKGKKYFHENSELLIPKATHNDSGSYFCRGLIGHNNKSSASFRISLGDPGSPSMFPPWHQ

[3] = target: T3, mouse FcγRIIb (mouse, UniProt P08101 30-210)
T3 construct: also called mFcγRIIb; mFcγR2b
T3 sequence: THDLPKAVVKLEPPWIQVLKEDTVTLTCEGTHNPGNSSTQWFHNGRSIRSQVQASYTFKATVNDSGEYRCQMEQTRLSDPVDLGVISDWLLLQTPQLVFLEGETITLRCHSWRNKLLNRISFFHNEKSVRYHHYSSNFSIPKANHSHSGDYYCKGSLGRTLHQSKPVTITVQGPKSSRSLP

Measured: binding result

T1 sequence (O75015 17-200): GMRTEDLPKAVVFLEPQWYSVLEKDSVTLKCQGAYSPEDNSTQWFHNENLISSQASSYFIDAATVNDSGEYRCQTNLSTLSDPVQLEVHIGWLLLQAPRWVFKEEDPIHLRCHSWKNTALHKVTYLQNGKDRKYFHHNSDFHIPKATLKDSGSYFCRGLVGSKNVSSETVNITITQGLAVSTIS

B1: VIC16-SAEAKA-LS (antibody)
heavy: QVQFQQSGAELAKLGASVKMSCKASGYTFTKYWMHWIKQRPGQGLEWIGYINPSTGYSENNQKFKGKAILTADKSSSTAYMQLSSLTSDDSAVYYCVRGYDSHYYVMDYWGQGTSVTVSSASTKGPSVFPLAPSSKSTSGGTAALGCLVKDYFPEPVTVSWNSGALTSGVHTFPAVLQSSGLYSLSSVVTVPSSSLGTQTYICNVNHKPSNTKVDKKVEPKSCDKTHTCPPCPAPELLGGPSVFLFPPKPKDTLMISRTPEVTCVVVDVSHEDPEVKFNWYVDGVEVHNAKTKPREEQYNATYRVVSVLTVLHQDWLNGKEYKCKVSNKALPAPIAATISKAKGQPREPQVYTLPPSREEMTKNQVSLTCLVKGFYPSDIAVEWESNGQPENNYKTTPPVLDSDGSFFLYSKLTVDKSRWQQGNVFSCSVLHEALHSHYTQKSLSLSPGK
light: DIVITQDTASLAVSRGQRATISCRASESVEYYGTTLMQWYQQRPGQPPKLLIYGASNVESGVPARFSGSGSGTDFSLNIHPVEEDDIAMYFCQQSRKVPYTFGGGTKLEIKRTVAAPSVFIFPPSDEQLKSGTASVVCLLNNFYPREAKVQWKVDNALQSGNSQESVTEQDSKDSTYSLSSTLTLSKADYEKHKVYACEVTHQGLSSPVTKSFNRGEC
binds: all assays above

— US20240109954A1 (GENERAL HOSPITAL, published 2024)
